Measured values taken from the supplement of paper PMC10126150.
± gives the standard deviation of the averaged measurements.

These sequences were tested on ATP (assay: switch fluorescence ratio, 500 uM ATP over buffer (Cy3 cluster intensity, sum of 5 cycles each) (fold (ratio)); higher = stronger signal-on switching upon ATP binding; sequences stand for … in TCGTCGGCAGCGTCAGATGTGTATAAGAGACAGTTTTTTTTTTTTTTTTTTTTTTTTT…TC). Conditions: aptamer strand: ATP DNA aptamer (quencher-CACCTGGGGGAGTATTGCGGAGGAAGG + anchor), 100 nM annealed; ATP concentration: 500 uM.
Method in brief: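 The fluorescence ratio divides summed target-cycle Cy3 intensity by summed buffer-cycle Cy3 intensity for each cluster and is averaged per switch-domain sequence. Cy3-labelled switching-strand clusters on a modified Illumina MiSeq flow-cell were annealed to 100 nM quencher-labelled ATP aptamer, then imaged in selection buffer and again after 15 min with 500 uM ATP at 22 °C. Five such cycles were run, with NaOH stripping and re-annealing between them, and clusters outside 100-1000 RFU were excluded.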
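Further: ATP exposure 15 min at 22 °C before imaging.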

Sequence | switch fluorescence ratio
CGTCCATTGA | 1.03 ± 0.019
CGTCCGGATG | 1.19 ± 0.13
CGTCCGGCAG | 1.67 ± 0.083
CGTCCTATTT | 1.01 ± 0.029
CGTCCTCATG | 1.302 ± 0.0067
CGTCGAGTGC | 0.962 ± 0.011
CGTCGCCGGT | 1 ± 0.0078
CGTCGGAGGG | 0.977 ± 0.013
CGTCGGAGTG | 1.01 ± 0.022
CGTCGGGAAT | 1.35 ± 0.051
CGTCGGGGCA | 0.964 ± 0.074
CGTCGTAAAA | 0.999 ± 0.036
CGTCTAAGGG | 1.06 ± 0.13
CGTCTGGGAT | 1.01 ± 0.037
CGTCTGTCTG | 0.976 ± 0.033
CGTCTTAAAG | 1 ± 0.036
CGTCTTAGTT | 0.993 ± 0.015
CGTGAAAATC | 0.9987 ± 0.0075
CGTGACAGAG | 0.992 ± 0.02
CGTGAGAAGT | 0.9923 ± 0.0041
CGTGAGAATG | 0.997 ± 0.026
CGTGAGGGGG | 1.01 ± 0.012

Sequence | switch fluorescence ratio
CGTGAGGGGT | 0.994 ± 0.026
CGTGAGTGGT | 1.018 ± 0.0037
CGTGAGTTTG | 0.9888 ± 0.0082
CGTGATAAAG | 0.9911 ± 0.0089
CGTGATATTG | 1.01 ± 0.017
CGTGATTAAG | 1.09 ± 0.17
CGTGATTTGA | 0.986 ± 0.014
CGTGCACATT | 0.983 ± 0.012
CGTGCATCGA | 1.0092 ± 0.00045
CGTGCCAGCA | 0.983 ± 0.045
CGTGCCAGCT | 0.9518 ± 0.00082
CGTGCCGGGG | 0.968 ± 0.053
CGTGCGGGGA | 1.02 ± 0.032
CGTGCGGGTT | 0.993 ± 0.047
CGTGCTAGTA | 1.02 ± 0.058
CGTGCTGTT | 1.01 ± 0.027
CGTGGAGGGT | 0.9966 ± 0.0042
CGTGGATGTG | 0.9885 ± 0.0027
CGTGGATGTT | 0.9831 ± 0.0034
CGTGGCAAAG | 1.02 ± 0.015
CGTGGCAGCA | 1.0326 ± 3.9e-05
CGTGGCGCGT | 1.05 ± 0.11

Sequence | switch fluorescence ratio
CGTGGCTATG | 0.959 ± 0.019
CGTGGCTGGT | 0.996 ± 0.013
CGTGGGGATA | 1.031 ± 0.009
CGTGGGGGAC | 0.997 ± 0.033
CGTGGGGGCA | 0.9538 ± 0.0076
CGTGGGGTGT | 1.01 ± 0.039
CGTGGGTCCA | 1.024 ± 0.01
CGTGGGTGTT | 0.946 ± 0.015
CGTGGTATGG | 0.9976 ± 0.003
CGTGGTTTTT | 1.01 ± 0.023
CGTGTACATC | 1.01 ± 0.011
CGTGTACGGA | 1.022 ± 0.0021
CGTGTATTTG | 0.989 ± 0.011
CGTGTCAGCA | 0.9937 ± 0.0055
CGTGTCGCCT | 1.01 ± 0.015
CGTGTCGCGC | 1.002 ± 0.01
CGTGTGAGAC | 1.02 ± 0.014
CGTGTGAGGG | 1.01 ± 0.015
CGTGTGAGGT | 0.9972 ± 0.008
CGTGTGGCGA | 1.06 ± 0.015
CGTGTGGGGG | 1.02 ± 0.031
CGTGTGGTAG | 0.992 ± 0.044

Sequence | switch fluorescence ratio
CGTGTGTGCA | 1.004 ± 0.0024
CGTGTGTTTT | 1 ± 0.0068
CGTGTTCGCT | 0.9921 ± 0.0016
CGTGTTGAGG | 0.991 ± 0.023
CGTGTTGGGG | 0.971 ± 0.039
CGTGTTTGTT | 0.988 ± 0.022
CGTTAAACTT | 1.01 ± 0.012
CGTTAAGGGA | 0.978 ± 0.021
CGTTACGCTG | 0.979 ± 0.026
CGTTACTATA | 1.08 ± 0.011
CGTTAGAGAG | 0.99 ± 0.03
CGTTAGGGAG | 0.95456 ± 0.00035
CGTTAGGGGA | 0.999 ± 0.011
CGTTATAAAT | 0.996 ± 0.029
CGTTATATCC | 1.06 ± 0.021
CGTTATGGGA | 0.976 ± 0.022
CGTTCAATGT | 1.026 ± 0.0085
CGTTCAGCGG | 0.996 ± 0.023
CGTTCATATG | 0.963 ± 0.023
